Test results taken from the supplement of paper PMC12455559.
± gives the standard deviation of the averaged measurements.

Experiments:
[1] = PET hydrolysis, aromatic products released after 48 h (umol product/mg enzyme); higher = more PET depolymerization activity
How it was run: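 PET hydrolysis activity was taken as the aromatic product in the supernatant and expressed per mg enzyme. This product was measured by absorbance at 260 and 280 nm against buffer blanks. Each reaction held 5 μg (50 μL) of tagless, SUMO-cleaved candidate enzyme purified on nickel beads, plus 3.5 mg amorphous PET film or crystalline PET powder in 450 μL buffer: 50 mM NaCitrate (pH 4.5, 5.5), 50 mM NaPhosphate (pH 6.5, 7.5) or glycine (pH 8.5). Plates were sealed and left 48 h at 40 or 60 °C without shaking.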

[2] = purified protein yield per well (BCA); higher = higher soluble expression
How it was run: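 On an OT-2 robot, lysed cells were processed by binding protein to Ni-charged magnetic beads and releasing it with SUMO protease. Expression took place in E. coli C41(DE3), in 2 mL autoinduction cultures with 100 µg/mL kanamycin, for 2 h at 37 °C followed by 40 h at 18 °C. The Pierce Rapid Gold BCA kit was used to quantify purified protein yield in each well, with values under 25 ug (0.1 mg/mL) below the detection threshold.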

[3] = melting temperature (DSF); higher = more thermostable
How it was run: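 Values are melting temperatures from differential scanning fluorimetry. Candidate enzymes were expressed in E. coli C41(DE3), purified on nickel beads and freed by SUMO protease cleavage. In sealed PCR plates on a Bio-Rad CFX96, 45 μL enzyme (0 to 0.3 mg/mL) was combined with 5 μL 5X Sypro Orange. Fluorescence was recorded from 25 °C for 250 cycles, rising 0.3 °C per cycle at a ramp of 0.3 °C/s.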

[4] = substrate: aFilm, 40 °C, pH 4.5
[5] = substrate: aFilm, 40 °C, pH 5.5
[6] = substrate: aFilm, 40 °C, pH 6.5
[7] = substrate: aFilm, 40 °C, pH 7.5
[8] = substrate: aFilm, 60 °C, pH 4.5
[9] = substrate: aFilm, 60 °C, pH 5.5
[10] = substrate: aFilm, 60 °C, pH 6.5
[11] = substrate: aFilm, 60 °C, pH 7.5
[12] = substrate: cryPow, 40 °C, pH 4.5
[13] = substrate: cryPow, 40 °C, pH 5.5
[14] = substrate: cryPow, 40 °C, pH 6.5
[15] = substrate: cryPow, 40 °C, pH 7.5
[16] = substrate: cryPow, 60 °C, pH 4.5
[17] = substrate: cryPow, 60 °C, pH 5.5
[18] = substrate: cryPow, 60 °C, pH 6.5
[19] = substrate: cryPow, 60 °C, pH 7.5

Sequence	PET hydrolysis [1, 4]	PET hydrolysis [1, 5]	PET hydrolysis [1, 6]	PET hydrolysis [1, 7]	PET hydrolysis [1, 8]	PET hydrolysis [1, 9]	PET hydrolysis [1, 10]	PET hydrolysis [1, 11]	PET hydrolysis [1, 12]	PET hydrolysis [1, 13]	PET hydrolysis [1, 14]	PET hydrolysis [1, 15]	PET hydrolysis [1, 16]	PET hydrolysis [1, 17]	PET hydrolysis [1, 18]	PET hydrolysis [1, 19]	purified protein yield per well [2] [µg]	melting temperature [3] [C]	PET hydrolysis ([1]; substrate: aFilm, 40 °C, pH 8.5)	PET hydrolysis ([1]; substrate: aFilm, 60 °C, pH 8.5)	PET hydrolysis ([1]; substrate: cryPow, 40 °C, pH 8.5)	PET hydrolysis ([1]; substrate: cryPow, 60 °C, pH 8.5)
ADNPYQRGPDPTRASVAAVNGPFANTSVSVPTGYGFNGGRIYYPTDTSQGTFGAIAISPGYTALFSAELAWMGPWLASHGFVVIGIETNSRNDFDTARGTQLLAALDYLTQQSPVRDRVDPNRLAVSGHSMGGGGALSAAIRRSSLKAAVGITPYSPSQNLANDRVPTMVISGQADTVVTPSYALNLYNSLPASTESVYLEVAGGDHGFMVGRSNPVLIRTMLPFLKMFVDNDSRYSQFLCPLLDSSGVVTYRSTCPLLPTDPTTPPTGSPTPTPTTPPPSGSANEIIGTQSGRCVDVPNASRNNGTRVQLYDCNKQTNQSWTYTSNRQLRVYDNMCLDAAGSGNGAAIQIYTCHSGTNQQWNVNSNGTITGVQSGRCLDVWSSNNGAQIQLYDCHGQPNQQFRLAPLA [TEP010]	< 3	< 3	< 3	< 3	< 3	< 3	< 3	< 3	13.5 ± 2.1	24	41 ± 1.4	27 ± 4.2	< 3	6 ± 1.4	5 ± 1.4	2 ± 2.8	269	62.8				
DEIGQAPTASNITGNGSFATTSASISSTVAGFGGGRVYYPTATGTYPVIAISPGFTATWSSLSWIGPRLSSWGFVVVGIETNSIYDQPGSRGSQLLAALNWAVSSSPTAVRSRVDGSRRGVAGHSMGGGGTLEALAADTSGLVKAGVPLAPWNSDKTWNNVSEPVLIVGGQSDTIAPVSSHSVPFYNTLAGPKTYVELTGASHFFPQSSNATTSRALVSWFKRWLNQDSRFTPFTCGFSGAAVSSFRTNAC [ESM093]									< 3	25	44	72	< 3	7	23	39	93.2	65.2				
MMPSADAASTLADNPYQRGPDPTVASVAAAYGTFATAQLTVPPGNGFNGGSIYYPTDTSQTYGAVAIVPGYTARFADEEAWMGPRLASFGFVVIGVETNSRNDFDTARGTQLLAALDYLTNSSAVRDRVDRNRLAVIGHSMGGGGALVAADQRPSLKAAIGLAPYKPSGNLANNRVPTLILSGQNDTVVTPSYLDGLYPTLPAATPGAYILLSGADHLFFTRPNDIEMRSQIPWLKTFVDNDTRYSQFLCPTLKDTTSVARSTAKCSLIPSGGNPSTPPSSSSPSPSSPASSSPPPSGAKHIVGAQSGRCVDVPNSSRTNGTRVQLYDCHSGTNQQWTYTSSRQLTVYGSMCLDAAGSGNGAAVQIYSCNGQANQQWNVNSNGTISGVQSGRCLDVWGTNNGQQIQLYDCHGQANQRFSLS [TEP054]	3	8 ± 1.4	9.5 ± 0.71	< 3	< 3	< 3	< 3	< 3	14 ± 4.2	24 ± 2.8	35	18 ± 2.8	2 ± 2.8	7 ± 1.4	7.5 ± 2.1	1.5 ± 2.1	297	60.7				
STRNQEPTLQSIEAARGPYEIATQSVPPAVNTGFGGGTIYYPATTGAGKFGAVALSPGYMEKEYSFSWLGTRLASQGFVVFIINTQNSEEFPSARTDELLASLNYLTQTSEVRDRVDPNRLAVMGHSMGGGAALEAAEKNQSLRAVISMTPWNIKTTYSDIKTPTLIIGAQYDNIAPVHDHAQPSYASLPNDLAKSYLELRNGNHFSPNMENTAIARSSTVWLKRFVDGDTRYNKFICPGPTVGDEFNIVQSNCPIL [DP079]		< 3	< 3	< 3		< 3	< 3	< 3		< 3	< 3	< 3		< 3	< 3	< 3	281	60.4	< 3	< 3	< 3	< 3
ADNPYQRGPDPTPQSISATTGPFATASVTVPRQGNFGGGVIYYPTDTSQGTFGAVAISPGLNGTWPGIAWLGPRLSSQGFVVFGIDTLGLNDSTASRGSQLLAALDYLTQTSSVRTRVDASRLAVAGHSMGGGGAFEAVLRRPTLKASIPNAPFFPGSAANVRVPTLITAMQNDSLVGQNRNAYNGIPAGVEKAYIELAGAGHNQIGQPTTAIARNWIPWLKIFVDNDARYHQFFCPTTNMSGLSQYLNTCPLTSATPPTSSPSAGPTTPGPTGPPPGGACAATYQTVNTWSGGYQGEMTVRAGNSAINGWTVRWTMGGGQISQVWNGTLVTGSGAAAVRNAPYNGALAAGATTTFGFISSGTPSATSLTCATP [ESM064]									< 3	11	10	74					164	63.1				
MNAVGPTTPPTTTPPTTPAGDNPYQRGPDPTVASVAAQYGPFATAQITVPPGNGFNGGFIYYPTDSSHTYGAVAIVPGYTALFADEEAWMGPRLASFGFVVIGVETNSRTDYDTARGTQLLAALDYLTNSSAVRDRVDRNRLAVIGHSMGGGGALYAATQRPSLKAAIGLAPFKPSGNLASDTVPTMIIGGINDTTVTPSYLDGLYPTLPAATPGAYLQLANADHLYFTRPNDIEMRSQIEWLKIFVDNDTRYTPFLCPSIKDTTGIVRSNVKCSTIPGGGSTSPPTTTPPPAGSNRIVGAQSGRCVDVPGASQTNGTRVQLYDCNGQPNQAWTLTASKQLTVYGSRCLDAAGSGNGSAVQIYSCNGQANQQWNVNANGTITGVQSGRCLDVWGTGNGQQVQIYDCNGQANQRFGLS [ESM052]	4.5 ± 0.71	7.5 ± 0.71	< 3	< 3	< 3	< 3	< 3	< 3	13.5 ± 2.1	28.5 ± 2.1	36.5 ± 3.5	17.5 ± 7.8	< 3	7.5 ± 0.71	5.5 ± 0.71	< 3	248	61.6				
ADNPYERGPDPTRTSVATERGPFANTSVSVPSGHGFNGGRIYYPTDTSQGTFGAIAISPGYTALFSVELAWMGPWLASHGFVVIGIETNSTNDFDTARGTQLLAALDYLTQQSPVRDRIDPSRLAVSGHSMGGGGALSAAMRRSSLKAVVGITPFSPSSNLASNQVPTMVISGQADTVVTPSYALDLYNSLPASTESVYLEVAGGDHGFMVGRSNPVLIRTMLPFLKMFVDNDTRYSQFLCPLMDNSGVVTYRSTCPLLPTPPTTPPPTGDPTSPPPSTDPTTPPPSGSTGQIVGTQSNRCIDVPNSSRNNGTRVQLYDCHGQANQTWTYNSTTKQLRVYGDMCLDAAGSGNGAAVQIYNCHGQTNQQWNLNSNGTISGVQSNRCLDVWSTNNGAQIQLYDCHGQTNQQFRIRS [ESM173]	< 3	< 3	< 3	< 3	< 3	< 3	< 3	< 3	3.5 ± 0.71	11.5 ± 0.71	20.5 ± 0.71	11	< 3	< 3	< 3	< 3	199	61.6				
MLTITVATGSASAADNPYQRGPDPTRTSVTAVNGPFANTSVSVPTGYGFNGGRIYYPTDTSQGTFGAIAISPGYTALFSAELAWMGPWLASHGFVVIGIETNSRNDFDTARGTQLLAALDYLTQQSPVRDRVDPNRLAVAGHSMGGGGALSAATRRSSLKAVVGIAPYSPSSNLANDRVPTMIFAGQADTVVTPSYATGLYNSLPTTTESAYLEVAGADHGFMVGRSNPVMVRTMLPFVKMFIDNDARYSQFLCPLLDSSGVVTYRSTCPLLPSTPPTSTPTPTDPPTPTPTPTVPPGSASEIVGTQSSRCIDVPNASRNNGTRVQLYDCNKQTNQA [ESM121]	< 3	< 3	< 3	< 3	< 3	< 3	< 3	< 3	5.5 ± 0.71	15 ± 1.4	11	2.5 ± 3.5	< 3	< 3	< 3	< 3	268	58.9				
AAAAGRADQRGPDPSVAGVAATYGPFATAQLTVPAGNGFNGGYIYYPTDTSLGTWGAVAIVPGYSALFANEEAWMGPRLASFGFVVIGIETTTRTDGADARATQLLAALDYLTQRSPVRDRVDPGRLAVMGHSAGGAGALLAAMRRPSLRAVVGLAPGSPTGLSSLSTDVVPTLFVGGQQDPTVTPSYLDNLYATLPASTQSAYVQLGGADHLFFTRANDVEIRRLVPWLKLFLDGDTRYTQFMCPTTPDTTGVSRYSAKCPLVPPGGPTGSASPSSPGASNSPSSPPASSSAPGAACVATYRTVGQWSGGFQGEVTVTAGGRPVNGWTVRWALGSGQAVSQLWNGALSTSGSAVSVRNVSYNGALAASASTTFGFLGSGTPSTPALSCTSP [ESM041]									< 3	< 3	< 3	< 3					106	47.8				
ADNPYQRGPDPTLASVSAQRGTFATAQVAVPAGDGFGGGMIYYPTDTSQGTFGAVAIVPGYTARFSVEEAWMGHWLASFGFVVIGVETNSTNDFDTARGTQLLAALDYLTQRSSVRDRVDASRQSVVGHSMGGGGALYAAGQRASLKAAVGLAPYKPSGNPTNVRVPTMIISGQNDTVVTPSYATGLYNTLPATTESAYMEFTGADHLFPTRANTLEMRILIPWLKIFVDSDNRYSQFLCPLQDSTGIRGYRSTCPFLPNPTTSPSTTAPTTPPTTPPTTPPTGACSATYRTVNSWPGGFQGEVTVSAGSTPVDGWAVRWTLASGQAVTQVWNGALSVSGSAVTVRNTTYNGSLGANASTTFGFLASGSPTPVSLTCTSP [ESM033]									9	25	35	6	< 3	< 3	< 3	< 3	594	53.8				
ADNPYQRGPDPTPTSVTAVNGPFANTSVAVPTGYGFNGGRIYYPTDTSQGTFGAIAISPGYTALFSAELAWMGPWLASHGFVVIGIETNSRNDFDTARGTQLLAALDYLTQQSPVRDRVDPNRLAVAGHSMGGGGALSAATRRSSLKAAVGIAPYSPSSNLANDRVPTMIFAGQADTVVTPSYASGLYNSLPATTESVYLEVAGADHGFMVGRSNPVMVRTMLPFVKMFIDNDTRYSQFLCPLMDSSGVVTSRSTCPLLPSDPTTPTPTPTTPDPTPTVPPGSASEIVGTQSGRCIDVPNASRTNGTRVQLYNCNRQTNQAWTYTSNKQLQVYGTMCLDAAGSGNGAAVQIYSCHSGTNQQWNVNSNGTISGVQSGRCLDVWSTSNGAQVQLYDCHGQTNQQFRLAPLG [ESM132]									< 3	5	< 3	< 3	< 3	< 3	< 3	< 3	144	56.2				
